# Assay results taken from the domain aggregation screens of Martell et al. (2025).
# Assay: soluble fraction after stress (log2 fold change); higher = more stays soluble; pooled small domains, quantitative proteomics
# Conditions: stress: pH 4
# In short: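 Pooled custom libraries of small protein domains were stressed at pH 4 and then measured by high-throughput quantitative proteomics. The fold change in the amount of each domain that stays soluble after the acid stress serves as a measure of aggregation propensity. Fold changes are given on a log2 scale, and higher values mean more of the domain stayed soluble.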
row,Sequence,soluble fraction (log2)
1,HMIENGILELKGKTGVAQTVLRPSGKVLIDDEIYDAVALTGYIEKADKVLVTKVEATQLYVEK,-0.289
2,HMADIWDLLRSEYKLTETDVRMLTDMLPDELMNDFRSEVLALRDRMNRYKVNNPKSYVVTSLKNFIIQHTP,-0.787
3,HMITPAARLRALKIRLSVDEVAQIVQRLVNGETVYQIGKPDTGGHAKATVGKINALRLAGQLHFL,-0.259
4,HMKIDELKAYLFQSVRVKNPHTQEYDTLKIIELNYYQDKIKAKLKNSDDDYITEMIFESIKHLQNFLG,-1.98
5,HMNMAEETLDTAAKILKAAEEEFMEKGYGNAKMMSIAARAGVSHSMLHYYYRSKGKLFQMIFDEKA,-1.06
6,HMIINLGELLKMLEVNKYQDAMDALDSLIEEGGSLEKIESLHEIRQHTHAMNFREAERLLSILIESEGA,-1.41
7,HMIAGHLQEKKGFFYIVLSYPDAAGKRKTKWFPTKLSVKGNKKKAEVMLMDARKTFVPPETPL,0.207
8,HMIQVNKTQALIIEEMRDNPNITLLELQKTLSLGRTAIQNNVSSLRKRQIIKRVGSNKNGYWEVTDK,0.22
9,HMLSVRERMSAILVSLEGERYADFTGLFDPTEGKGGVTVTFLAILELLKESMIDVVQNELYGPIHVRAA,0.122
10,HMVSVGDIFAGRIISNENGHLLLQLLDGSKISAQTVTDLKYNIGDVLNLEIIEEKQGLIFVRQT,-0.471
11,HMAPASADQLIDQLNEKVKAKDDKGVAALLTAAQTKMAELAQKDPKEAQAYVAKLQQWMQSNSENIKAALK,0.204
12,HMRQSQEVSGGERYRRLTAYLDTHPFITRKEYSGITGLLKNKALNDLNLLVNKGYLEAMGRGSHKVYVRPM,0.321
13,HMNLQAYQSVLDKLNEEYGTTFRFPTEEELHEVGLTNTVDPRTATVSATEFEKYMRPIAERISQANL,-0.315
14,HMSWAGRRSLAALEARYRDETGISNLKIKHNGVLGYHIEVPSKSADKLMAPDSGFTHRQTLAGAVR,0.00623
15,HMLLTPLEETRLVIEEIVIPQKLTIDLLPRSSAIRKLQHELITHYQLRGTSVGNEPNRRLRIYP,-0.633
16,HMVHSEDLQDHKYVSQLGEVFLKENPNYENIKKSWGDHMVVIKKFGRYPHRNKILNRKSTPEELEFLKG,-0.115
17,HMETPSNTAGITHATSDGYIFKGESDIIGRNSFGFIVKHGSHNHIIPFDSLRGTKWEYLINKYT,-0.03
18,HMSVKLMEVKGASTVVSRQVREAVSIVFPTSSMRLDLVALKARIEGVDAVKRADVYLRNGILEIQIDER,-0.981
19,HMPDLSMLDEVLDEYRSQAGSLVTVLQKAQDLYGYLPLTILRHIAEEMNIKPAQVYGVATFYTQFRL,-0.866
20,HMARVSGIDLPKNKRGYIGLTYIYGIGRSTALHILNSAGVDPEKKVHEWNDDETTAIRNIINAEIKVEGAL,-0.248
21,HMSDESALIAAIEKAIAAQPETAEKVRNGHLPAAGALIGSVMKETKGQADAARVRELLLGLLGQ,0.0231
22,HMPTITIQRGIILSSTTKGFIDELSHSQIKNAIVERLGEHHVMIHESQLDAVIKYAQKKEAVINIYL,-0.0875
23,HMGISSESIKTFIREIVENEDPKAPLSDQTMVELLAERGIDISRRTVAKYRDEMNLPSSSKRKR,-0.168
24,HMDDTVILPIQINGKRRAEISVPKAMPASEVEKLALANEDVLRFLAGQPIKKLIVVPGRIINVV,≥ 0.43
25,HMSQITEADYIPNTDKTWGELMEETGESLPNLVERYNNEMTKSNGKEQPQSIIQRIIEDYQMVS,-0.0864

row,Sequence,soluble fraction (log2)
1,HMDTIVHFLSDGRRITVRIKRNARKNIILRPMAADAVSATIPPWLGRRQLSAWLSEREDLLLSVLSRAA,-0.736
2,HMSFNGTILSNYQKTYPNLAKFTYDQANDALVYEGNFIKLNGYGLSRIDPVFFNMNPDEIFIFIKNG,-2.69
3,HMEIGELITLYRKQAGLTIDELSEKANVPKGTLNKIIGGITKAPTLETMRSIAYALGKKLADFDN,0.107
4,HMGSNRPLALGDVVRIEGSKTLGTILELNAKDAVVALGALKTTLPLSRIHHASSQESQRLKRQATQAPLR,0.0932
5,HMQITAPVQKIDGVEYYMHKVEQGQTLYSISKLYNVGVKEIQKANQLGTEGIQLGQVLKVRKGG,0.00111
6,HMNEKMKEIGLRIKELRELSDISAQGMADHLKIPLETYQEYEDGKKDIPASILFEISQKMEVDMGLLLTGE,-0.253
7,HMDYPFQYFNYSHLRILGVPAQLIKAVRKAPTLDAIEQLSGLSEKTKLWLLELATEPKLEDVLFDPGR,-0.515
8,HMGEYGVLWYLLTKKEAVSAGELKEKLHVVPGRMTDILTALEKKGLIIRQKNKTDKRVVDVVLTKEGEKEA,-0.511
9,HMDDFNLSPREKDVLGHLVKGNSYKMIADELQIGYDTVHSHIKKIYKKLHVNSMSEAVAKALKNKL,-0.26
10,HMIELDRTNLLGVFGPKSRPYALLMLSNGEMIKISIGDQFFGWRVYGIDEKSIQVQNGTKQEILRIP,-1.19
11,HMNTYVLPDALKSQLSVEDTGMLTKQLQALPETLAEGVLDSLSQMLSKNTLQNPVGWMLAVMKRAREGNFN,-0.282
12,HMRIEDTMDYINKIKEKLKNNGGVITSKEFTRSNIPTIYLTRMVETGELIRIDRGIYINSSG,-0.462
13,HMPELPEVETSRRGIEPHLVGATILHAVVRNGRLRWPVSEEIYRLSDQPVLSVQRRAKYLLLELQA,0.369
14,HMAEELELFHRLISVTGVGPKGALGFLSQLKPQEIILAILSDDVKTLSKAPGVGRKTAQRVILELKDKF,-0.828
15,HMVITISEADVSGTYTKSITQGDWKYIRTWTPFEDERLYDLAKDPMELRDLAPAAPSKLAELRELLSALVS,-1.56
16,HMALTQEQLGQRLQDARKSVALTQQEVAEDLGLSRESLAQIEAGSRSVNSLEIVRLARLYGRSLSSILLE,-0.299
17,HMSPLQLGNYNTLRITRFTDHGAYLDGGDVGEILMPKTYVLPEMKPGDEVRVFVYLDQEERLVGTTET,-1.44
18,HMLAEEAFNKQAATAGYVYRDGSYHPAASVAQYDAMPRNYRTNTMAQELSRSQVESQLQQSQ,-0.104
19,HMFDENVKLIENEYDVSIISRGSELKVMGDVENVDKAARALRSMLAMINKGESLTEQNVRYVLTLVNEGNE,-1.38
20,HMATPAFEMYKVRRGDTPAGLAKEWGFPDMASFYRINPDARSDWKRGLQLVKPMNEMAVLQATA,0.109
21,HMAEPSTSYTQFMDQAKEGKIKRVDVQGRTLTVTPTEGATYKITAPGDLWMVEDLRKAGVQVYGQP,0.076
22,HMADLIVFTTDANKEKKVDDETYFYLDVVSDGKLVENYELTEKQYNYIKDLGVGEYVYNEKGKLDSYTAFT,-1.12
23,HMKEIGGGPASKFIYYLIKTKHPIEQGDLIGITHLPRRTVQSAIEDLKNQGFIIERNSLDDSRRKVYYPVK,0.22
24,HMGSNLSFDLSQIIASRYQEKAAELGLTAPSLARTDLSPQEQATAEVVARAIIADYYDQRVAPFNDLIPQ,-1.54
25,HMNMAVELEDGTQIFVFSEDGEFAGKRAVIADEEGRPTEENAPAGTHTLRDGRSIVVGEGGVIESVVET,-0.708

row,Sequence,soluble fraction (log2)
1,HMSMLGTEQRVLVLGPARKGEGFLMARTDNNRIVNFEGPLSLVDTMVRVKVTDVYPHSLGGQLL,-0.0321
2,HMNTEEVGSYLKKLRLEHSFTQKELAGKLYITHQAVSNWEKGKALPDIGILSQLGDIYGISIDNLLLK,-0.551
3,HMNNLLEDIKARLMAQAEAGGHIDTETELAEHFGVTRYRIRKELDLLSQMGLLRRQPKNGIEVLTV,0.22
4,HMSRAMFEMHADWQPTDSIRGLLGRAGLPTDIAKLDQSRIGDFVNHWFGKPDRNTADSWNGLLVGWLKRTQ,-0.787
5,HMLDLVSIGKRIKAERQKNGLTQEALAERIEVSAHYVYELERGLKAMSVPILLRMSEVLHTSTDYLLF,-0.48
6,HMGRMSLDEAKAVILPIGEHKGHTMGEVLAIKPGLIDFYASQKFNSGKYPYLKEAAQVILENQG,0.173
7,HMDTNVPVPNVNGMTLNQAKAALEAAGFHVAVNWLGEKSDNNSVISYEPNGSAAKGTTITITVIAQPEQDG,-0.507
8,HMSKAYLSVESNISGARVFVDGQKEGTTPLSDVLLSAGEHLILVKKQGYETYQKRVRFQKGRSMSLYVDLS,-0.0554
9,HMSLSKEEFETISKQVLELAGAGPIPVKELLQKMERTSKEKAWKVIEFLQAEDKIVPDATGRIQL,-0.457
10,HMDEKLAHKLVSDFRQAAASLERFPFRNPVLRSEVFTVEKYRKLVFDKYHILLYQVKDQVVYVEYVIDGRQ,≥ 0.43
11,HMTRVANIPYSEFLKLVETDKINDVSMVGKTISGHLDDGTKFSTYTPPNDPNLIDKLSKHNVIIKAGPE,0.0499
12,HMENKLIELTLSLDKSERLDKILTQELSHTRSVIQQWLKSGFVSVNGEIVKANYKAKDGDHVTIQIE,-0.379
13,HMNSILFAITKEGGVVYGGKPVGVNGVRPLVRRLLQSEEMPVILQVDEKADAGLVIRVIDESKLGGASKV,-0.196
14,HMAIGSRLKVTTDATNLNIRSTPSTEGDIVGKAAHHEIVTLVEKTDDSWWKIKTNDGEEGYAYAQYLSPV,0.0608
15,HMKDITMPNVYGLTLEMAEQTLKQSELSIFKAMKINSDTVEEGKVIYTDPKANSIVSGDQEITIYVSDGP,0.22
16,HMRQHHMIISTKLGTPKEELAKLVSGFEDQGLRVSVITGTDYTVIGLVGDTTHLDEKRIRANPYVDNVQRV,0.0502
17,HMTKLPLLVELSRIIPTDTWVKKIKFSLGSVEFVGISKSASRLLPIVENSSYFHDTKFIGTIVT,-0.274
18,HMYNSYALTARELELVNYVLKGNSRREMAEDSGLKENTVASYMKRLYRKIKVHSRKELKELFM,-0.422
19,HMETVVTEVKTTDVVNIRTSDSETADKLSKAAIGDTFPLLEERGNGWSKVAYNGEEAFIKSDYLEPSKTE,-0.654
20,HMIINFDAIKLTTELNKYKRHKAIPNTFFDGTYTILDVRELYNDLTPKAQKIADELIEHYNVDVK,-1.69
21,HMPDYAFEGVVIKLTHRDYDRWKAGFPDVDLPPYLTARDAWLSEQTPADRKNWFVSTATDLRNFQKREAI,-0.362
22,HMAAPPPLSDYRNMQEAEHIRNILLQHHGNVRRAAAALELSRPYLYQKMKQLGINIAELRELSLSHSS,0.161
23,HMYGVAEFDEKGNVLSIEEKPVQPKSNYAVVGLYFYPNKVVGVASGIKPSARGELEITTVNQTFLRDEELK,0.0152
24,HMPTTNIRAFRLREADPESVKEALSMVMPKTSIYVDARTKSVLVVGLLDELARAAEIVALIDQP,-1.13
25,HMVAEKSKIEMAIDSINKLAKELADSGVAKKTISDIIKSVSGSANYNKITDFEVATDVYKELVALKNKEDT,-0.224
